Results on one molecule are retold here after patent publication US6506592 (BOARD OF REGENTS OF THE UNIVERSITY OF NEBRASKA, dated 2003).

This experiment addresses T1, Staphylococcus protein A (Staphylococcus, UniProt P38507 37-477).
T1 construct: Used to remove antibody-antigen complexes in the immunoprecipitation
The experiment can be described thus: immunoprecipitation from T2 plant MI52E extract; residual alpha-glucosidase activity in the supernatant.

Description: Tobacco leaf extracts to be used for detection of glycosyl hydrolase antigens were concentrated 3-fold by (NH_4)_2 SO_4 precipitation. […] Proteins (Amersham) were transferred to nitrocellulose and incubated. […] Concentrated plant protein extracts were diluted 1:10 in 10 mM tris-Cl pH 7.0. 50 ul of anti-malA antibodies were added to 200 ul of diluted extract and incubated for 2 hours at 4° C. with gentle agitation. […] Blots were soaked with a chemiluminescent substrate solution (Amersham) and results visualized by autoradiography and quantified by densitometry.
The residual activity remaining in the treated samples was then determined by enzyme assay.

B1: Sulfolobus solfataricus alpha-glucosidase (malA protein), recombinant (enzyme)
chain: MQTIKIYENKGVYKVVIGEPFPPIEFPLEQKISSNKSLSELGLTIVQQGNKVIVEKSLDLKEHIIGLGEKAFELDRKRKRYVMYNVDAGAYKKYQDPLYVSIPLFISVKDGVATGYFFNSASKVIFDVGLEEYDKVIVTIPEDSVEFYVIEGPRIEDVLEKYTELTGKPFLPPMWAFGYMISRYSYYPQDKVVELVDIMQKEGFRVAGVFLDIHYMDSYKLFTWHPYRFPEPKKLIDELHKRNVKLITIVDHGIRVDQNYSPFLSGMGKFCEIESGELFVGKMWPGTTVYPDFFREDTREWWAGLISEWLSQGVDGIWLDMNEPTDFSRAIEIRDVLSSLPVQFRDDRLVTTFPDNVVHYLRGKRVKHEKVRNAYPLYEAMATFKGFRTSHRNEIFILSRAGYAGIQRYAFIWTGDNTPSWDDLKLQLQLVLGLSISGVPFVGCDIGGFQGRNFAEIDNSMDLLVKYYALALFFPFYRSHKATDGIDTEPVFLPDYYKEKVKEIVELRYKFLPYIYSLALEASEKGHPVIRPLFYEFQDDDDMYRIEDEYMVGKYLLYAPIVSKEESRLVTLPRGKWYNYWNGEIINGKSVVKSTHELPIYLREGSIIPLEGDELIVYGETSFKRYDNAEITSSSNEIKFSREIYVSKLTITSEKPVSKIIVDDSKEIQVEKTMQNTYVAKINQKIRGKINLE
notes: 693 amino acids, 80.5 kDa subunit; Assayed as produced in transgenic tobacco (T2 plant MI52E extract) and as an E. coli-derived positive control; both come from the same malA coding region; also called malA polypeptide; recombinant alpha-glucosidase
In the case of B1, the binding result is “no binding”.
